Reference: the DeepSol protein solubility set

Assay: soluble on expression in E. coli; label from the status in PepcDB or PDB records

Sequence | soluble on expression in E. coli
MFLKSLIFVLTFQFSNGNPVEQVHLSLSGKADEMVVTWLTHDPRKFTC | not soluble
MTCEGRRTMTQPISLGHRMSLIDLYDLRMPQRTGTYVLHEENLAIIETGPSPSVPHLLAGLKALHIDPADIRYIIVTHIHLDHAGGVGVLLEHCPNATVIVHPKGKRHLADPSRLIAGAKAVYGEQFDALFDPIVPVPEERLLVKEDGETLVLSAERTLTFYDTPGHANHHFSIYDSYSGGVFTGDTIGVFYPQLQEAGLAFCLPSTSPNQFNPEAMKQSAERLEKLNPTRIYFGHFGALDQPEEAFRQLRFWLPKFVAAGKEVIARHPEAPAAEQAKAVTKLLHNDITAFLNECSIPASSPVYKVIELDLQVCAMGIIDYWRKQRLEHHHHHH | soluble
YNGQSETSQQPETPVFNTLPMMGKASPVSLGVPSEATANNGQQQQVQEQRRRINAMLQDYELQRRLHSEQLQFEQAQTQQAAVQVPGIQTLGTQSQ | soluble
MGSDKIHHHHHHMNHNLTTLHPYPFAKMATLLADSTPAHSYDEIKLGIGEPKHAPPAFVLDVLRENLDKISHYPTTNGLFELRQTIAHWLEKRFFLNHVNPNTQVLPVMGTREAIFSIVQAVINHQTETISQTATLNQSPVVVMPNPFYQIYEGAAILAQATPYFIPCTADNGFKGDFRSVPKDVWMRTQLLFVCSPNNPTGSVMTMDDWEQLLRLSDQYGFIIASDECYSELYFDKAPIGLLQACAALGRHDFKNCLVFHSLSKRSNLPGLRSGFVAGDATILDSYLQYRTYQGCAMPIPHQLASIAAWEDEKHVAHNRALYQEKFALWMSELGALLDLRMPEAGFYFWIKAPEQFDGDDELFVKALYEHANIHALAGRYLSREVNGKNPGQGYVRIALVASVEESREAIRRIRQLLGA | not soluble
MGSDKIHHHHHHMSEIETIQAYYAASLGKDGRITRTQRQILAAALDLFAEKGYEEVGTREIAERAGVAEGTLFHNFVNKNGILDAIMQPIVQNILPTMLNTLDQAVLDSPNQTLQAFVVALVRDRVAFVTRNRASLAVILSQFFNNAQDRAAVLGMVSPSILAQANEAMDRLKAARELVDWPNRMILQLVFSTIGGYLVEQVLYPQLDDLSDEQLIHYLSDFLVNGLSPRRIPLQDDNTAS | not soluble
MGSDKIHHHHHHMTEGGFDPALLVQSWPKPSKPRPIVTFGSGSIVGDAHFPAYRKAGFPIAGLYDPDQAKATTLADKWGVTAFRSVGEAAAVQDAIFDLATPPGRHAEILKDLPDGAVALIQKPMGNYLGEATEILEICRAKNLKAAVNFQLRFAPMMLALKDAIAKGWLGEIVDFDAWLALATPWELWEFLLKAPRVEIAMHSIHYLDLIRQLLGDPKGVHAKTLGHPNHKVAQTRTSAILDYGDTVRCALSINHDHKFGRRHQACEFRICGTEGAAYLKLGLNLDYPRGEPDILEIHPKGGTDWIAVPLAGEWFPDAFVGRMANVQRFASGEDDELVSSVEDAWSTMALVEAAYKSSAAPATLIAERP | not soluble
MRTLFFIPSMGSVRLPLIDFLVKNDIEYVILSRRNHVAVQREIALDMFLEMKDYDTLAFLDEDVVPIEIDFQKVEAKFNEGYDVVCGYYYLKTLRGYSVYRKDWEKEIFDGEVNGCGLGFTFIKREFLEKIKRPAFLAFKPIESPHWIGEDVYFFSTHKPRTYALSSLKAYHFIDERLALSPDRKLILQNDHVARIKHHHHHH | soluble
MGILSGNPQNEPLHYGEVFDIWSYLLAAQGAIASHQVFMNHTGDEDLKKFLEGLIENDMNSEIEELKALLKINGVALPPAPPERPVASIEDIPPGARINDVEIAAAVSTGLAAGLVTCSQVMGKCLREDVGMLFGQFHMKKAQAGVTLLRLSKKKGWVVPPPLHVRNSDQA | not soluble
MSNIPKELKYTKSHEWVKIDGDEVTVGITAHAQSLLGDLVYVELPEIGKEFAAGDDSCVVESVKAASDVYAPVDGEVIEINEALVDDPSRVNHTPYKDGWLFKLKISDESQLADLLTADAYAKTLED | not soluble
MTKRNTPQRRHNILALLNEQGEVSVDDLARRFETSEVTIRKDLAALETNGLLLRRYGGAIPLPHELISESSQPVSRYKKAIARAAVSRIREHARIIVDSGSTTAALIPELGQQPGLVVMTNSLHVARALTDLEHEPVLLMTGGTWDPHSESFQGQVAEQVLRSYDFDQLFIGADGIDLIRGTTTFNELLGLSRVMAEVAREVVVMVEADKVGRKIPNLELPWSSIHTLITDDRLPVEARDQIQARGINLICAAVSLEHHHHHH | not soluble
